Results on 40 sequences are retold here after the nanobody polyreactivity screen of Harvey et al. (2022).

This data set can be described thus: yeast display, Sf9 membrane polyspecificity reagent, FACS + sequencing; frameworks hold sequencing errors. The gist of the method: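 Nanobodies came from a synthetic yeast display library in Saccharomyces cerevisiae BJ5465, induced with galactose for 36–48 hours and stained for 1 hour at 4 °C with 10% biotinylated, detergent-solubilized Sf9 membrane reagent. Cells were enriched on streptavidin microbeads and then FACS-sorted, with low and high (top ~1%) gates set on anti-HA fluorescence for expression and streptavidin fluorescence for reagent binding. Each polyreactivity label reflects the gate a clone came from. Genes were amplified by colony PCR, sequenced by MiSeq 2 × 250 and filtered by CDR length.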
Regarding “QVQLVESGGGLVQAGGSLRLSCAASGRIFLFYAMGWYRQAPGKERELVAAISSTDDTYYADSVKGRFTISRDNAKNTVYLQMNSLKPEDTAVYYCAAYSIISQSEMYYWGQGTQVTVSS”, the “polyreactivity (PSR sort gate)” value is recorded as “low polyreactivity”.

Regarding “QVQLVESGGGLVQAGGSLRLSCAASGRIFLINAMGWYRQAPGKERELVAAITVSGTRTYYADSVKGRFTISRDNAKNNVYLQMNSLKPEDTAVYYCAAKLQYRWTCGYYYWGQGTQVTVSS”, the “polyreactivity (PSR sort gate)” value was “high polyreactivity”. With “QVQLVESGGGLVQAGGSLRLSCAASGRIFLINAMGWYRQAPGKESEFVAAIRTGGNTYYADSVKGRFTLSRDNAKNTVYLQMNSLKPEDTAVYYCAADRIYPYYRWSGAHRSDVDYWGQGTQVTVSS”, the “polyreactivity (PSR sort gate)” value is reported as “low polyreactivity”.

With “QVQLVESGGGLVQAGGSLRLSCAASGRIFLKYTLGWYRQAPGKERELVAAISRGGSTYYADSVKGRFTISRDNAKNTVYLQMNSLKPEDSAVYYCAATSYRRTGYNYWGQGTQVTVSS”, the “polyreactivity (PSR sort gate)” value was “high polyreactivity”. As for “QVQLVESGGGLVQAGGSLRLSCAASGRIFLKYTMGLYRQAPGKERELVAAISRGGSTYYADSVKGRFTISRDNAKNTVYLQMNRLKPEDTAVYYCAATSYRRTGYNYWGQGTQVTVSS”, the “polyreactivity (PSR sort gate)” value was “high polyreactivity”. “QVQLVESGGGLVQAGGSLRLSCAASGRIFLQYAMGWYRPAPGKERELVAAISRSGGSTYYADSVKGRFTISRDTAKNSVYLQMNSQKPEDTAVYYCAAALFGNRYYYWGQGTQVTVSS”: the “polyreactivity (PSR sort gate)” value is listed as “low polyreactivity”. With “QVQLVESGGGLVQAGGSLRLSCAASGRIFLQYAMGWYRQAPGKERELVAGISLRGGSTYYADSVKGRFTISRDNAKNTVYLQMNSLKPEDTAVYYCAADVIVTVETNTSGPSFTEYDYWGQGTQVTVSS”, the “polyreactivity (PSR sort gate)” value is given as “low polyreactivity”. Take “QVQLVESGGGLVQAGGSLRLSCAASGRIFLRNAMGWYRQAPGKERELVATITSRGGSTYYADSVKGRFTISRDNAKNTVYLQMNSLKQEDTAVYYCAADPRRYRGFGYVYGGFYYWGQGTQVTVSS”: the “polyreactivity (PSR sort gate)” value is “low polyreactivity”. For “QVQLVESGGGLVQAGGSLRLSCAASGRIFLRYAMGWYRQAPGKERELVAVISSGGSTYYADSVKGRFTISSDNAKNTVYLQMNSLKPEDSAVYYCAASRHDSRYQYDYWGQGTQVTVSS”, the “polyreactivity (PSR sort gate)” value is “high polyreactivity”.

Take “QVQLVESGGGLVQAGGSLRLSCAASGRIFLRYTMGWYRQAPGKDRELVAAISGGGSTNYADSVKGRFTISRDNAKNTVYLQMNSLKPEDTAVYYCAADYIWLSHPYRRVDFYYWGQGTQVTVSS”: the “polyreactivity (PSR sort gate)” value is “low polyreactivity”. As to “QVQLVESGGGLVQAGGSLRLSCAASGRIFLSNALGWYRQAPGKERELVAAINSGGNTDYADSVKGRFTISRDNAKNTVYLQMNSLKPEDTAVYYCAADAFSWDHDYWGQGTQVTVSS”, the “polyreactivity (PSR sort gate)” value is on record as “low polyreactivity”. On to “QVQLVESGGGLVQAGGSLRLSCAASGRIFLTYAMGWYRPAPGKERELVAAIRSRSGTTYYADSVKGRFTISRDNAKNTVYLQMNRLKPEDTAVFYCAAGGKSRSYYWGQGTQVTVSS”, for which the “polyreactivity (PSR sort gate)” value is “high polyreactivity”. Take “QVQLVESGGGLVQAGGSLRLSCAASGRIFLVNAMGWYRQAPGKERELVAAINGSGGSTYYADSVKGRFTISRDNAKNTVYLQMNSLKPEDTAVYYCAAKYVYSVGNYRYDYWGQGTQVTVSS”: the “polyreactivity (PSR sort gate)” value was “low polyreactivity”. As for “QVQLVESGGGLVQAGGSLRLSCAASGRIFLVNAMGWYRQAPGKERELVAAISWSSGSTYYADSVKGSITISRDNAKNTVYLQMNSLKPEDTAVYYCAADGSSRGRYRYGYWGQGTQVTVSS”, the “polyreactivity (PSR sort gate)” value is recorded as “high polyreactivity”. For “QVQLVESGGGLVQAGGSLRLSCAASGRIFLVYAMGWYRQAPGKERELVAAISWRGGRTYYADSVKGRFTISRDNAKNTFYLQMNSLKPEDTAVYYCAAASKYSQFEYDYWGQGTQVTVSS” the value was “high polyreactivity”; for “QVQLVESGGGLVQAGGSLRLSCAASGRIFLVYAMGWYRQAPGKERELVAAISYSGGRTYYADSVKGRFTISRDNAKNTVYLQMNSLKPEDTAVYYCAAKRITYYGGGRFYYWGQGTQVTVSS”, “high polyreactivity”. “QVQLVESGGGLVQAGGSLRLSCAASGRIFLWYAMGWYRQAPGKERELVASITRSGVTTYYADSVKGRFTISRDNAKNTVYLQMNSLKPEDTAVYYCNKDFRGDAIKLDVNYWGQGTQVTVSS”: the “polyreactivity (PSR sort gate)” value is given as “low polyreactivity”. For “QVQLVESGGGLVQAGGSLRLSCAASGRIFLYNAMGWYRQAPGKERELVAAITSSGSSTYYADSVKGRFTISRDNAKNTVYLQMNSLKPEDTAVYYCNRYTRKTRRVDYWGQGTQVTVSS” the value was “high polyreactivity”; for “QVQLVESGGGLVQAGGSLRLSCAASGRIFLYYAMGWYRQAPGKERELVAAISRRGASTYYADSVKGRFTITRDNAKNNVYLQMHSLKPEDTAVYYCGTVPGKSGDYWGQGTQLTVSS”, “high polyreactivity”; for “QVQLVESGGGLVQAGGSLRLSCAASGRIFMNYDMGWYRQPPGKERELVADISISGSTDYADSVKGRFTISRDNAKNTVYLQMNSLKPEDTAVYYCATSFYVSDYYVPYEMGYWGQGTQVTVSS”, “low polyreactivity”. On to “QVQLVESGGGLVQAGGSLRLSCAASGRIFNAYATGWYRKAPGKERELVAAISSIGGRTYYADSVKGRFTISRDNAKNTVYLQMNSLKPEETAVYYCAARRRSRQYRYDYWGQGTQVTVSS”, for which the “polyreactivity (PSR sort gate)” value is “high polyreactivity”. For the sequence “QVQLVESGGGLVQAGGSLRLSCAASGRIFNDYAMGWYRPAPGKESELVANYADSVKGRFTISRDNAKNTVYLQMNSLKPEDTAVFYCAADFPSFPDFRPEYDYWGQGTQVTVSS”, the “polyreactivity (PSR sort gate)” value is “low polyreactivity”. Then “QVQLVESGGGLVQAGGSLRLSCAASGRIFNEYGMGWYRQAPGKERELVAAITWGGGSTYYADSVKGRFTISRDNAKNTVYVQMNSLKPEDTAVYYCNAVSERPIPWYYYWGQGTQVTVSS”, with “low polyreactivity”. Turning to “QVQLVESGGGLVQAGGSLRLSCAASGRIFNFYAMGWYRQAPGKERELVASITSGGRTSYADSVKGRFTISRDNAKNTVYLQMNSLKPEDTAVYYCAAVLFGYPRTIGTWYDRYYYWGQGTQVTVSS”, the “polyreactivity (PSR sort gate)” value is on record as “high polyreactivity”. Regarding “QVQLVESGGGLVQAGGSLRLSCAASGRIFNGNAMGWYRQAPGKEREFVAAITWNGGRTYYADSVKGRFTISRDYAKNTVYLQMNSLKPEDTAVYYCNADPYHRRSSGDYWGQGTQVTVSS”, the “polyreactivity (PSR sort gate)” value is listed as “high polyreactivity”. In the case of “QVQLVESGGGLVQAGGSLRLSCAASGRIFNGNAMGWYRQAPGKERELVAAISTSGGRTYYADSVKGRFTISRDNAKNTVYLQMNSLKPEDTAVYYCAARYFRRDYIDYDYWGQGTQVTVSS”, the “polyreactivity (PSR sort gate)” value is “low polyreactivity”. “QVQLVESGGGLVQAGGSLRLSCAASGRIFNGNAMGWYRQAPGKERELVAAISVSGGSTYYADSVKGRFTISRDNAKNTVYLQMNSLKPEDTAVYYCAARTSSYSFPYAYNYWGQGTQVTVSS”: the “polyreactivity (PSR sort gate)” value is on record as “high polyreactivity”.

For the sequence “QVQLVESGGGLVQAGGSLRLSCAASGRIFNGYAMGWYRQAPGKERELVAAINSSGGSTYYADSVKGRFTISRDNAKNTVYLQMNSLKPEDTAVYYCARVSYHYRTYDYWGQGTQVTVSS”, the “polyreactivity (PSR sort gate)” value is on record as “high polyreactivity”. On to “QVQLVESGGGLVQAGGSLRLSCAASGRIFNIYALGWYRQAPGKERELVAAISGSGSTYYADSVKGRFTISRDNAKNTVYLQMNSLKPEDTAVYYCAARSLVRYYHNANYYPYYYWGQGTQVTVSS”, for which the “polyreactivity (PSR sort gate)” value is on record as “high polyreactivity”. Consider “QVQLVESGGGLVQAGGSLRLSCAASGRIFNKYTMGWYRQAPGKERELVAAIRGRGGSTYYADSVKGRFTISRDNAKNTVYLQMNSLKPEDTAVYYCAADSGPFYSKTPTRYGYWGQGTQVTVSS”, for which the “polyreactivity (PSR sort gate)” value is listed as “high polyreactivity”. For “QVQLVESGGGLVQAGGSLRLSCAASGRIFNPNAMGWYRQAHGKESELVAAISGSGGSTYYADSVKGRFTISRDNAKNTVNLQMNSLKPEDTAVYYCNKLLSQRRYHSEMDYWGQGTQVTVSS”, the “polyreactivity (PSR sort gate)” value was “high polyreactivity”. For “QVQLVESGGGLVQAGGSLRLSCAASGRIFNTYAMGWYRQAPGKERELVAAISWRGVSTYYADSVKGRFTISRDNAKNTVYLQMNSLKAEDTAVYYCAALPFWWGGYWGQGTQVTVSS”, the “polyreactivity (PSR sort gate)” value is “high polyreactivity”.

Consider “QVQLVESGGGLVQAGGSLRLSCAASGRIFNTYAMGWYRQAPGKERELVARITWSAGRTYYADSVKGRFTISRDNAKNTVYLQMNSLKPEDTAVYYCAAEGFYRSSPVRTYIGYDYWGQGTQVTVSS”, for which the “polyreactivity (PSR sort gate)” value is given as “high polyreactivity”. Take “QVQLVESGGGLVQAGGSLRLSCAASGRIFNYNAMGWYRQAPGKERELVAVITSGDSTNYADSVKGRFTISRDNAKNTVYLQMNSLKPEDTEVYYCAAEYYSIRYGPHSIEVYGMDYWGQGTQVTVSS”: the “polyreactivity (PSR sort gate)” value is recorded as “low polyreactivity”. For “QVQLVESGGGLVQAGGSLRLSCAASGRIFNYYAMGWYRQAPGKARELVAAISGSGGRTYYADSVKGRFTISRDNAKNTVYLQMNSLKPEDTAVYYCAADGVDGYDYWGQGTQVTVSS” the value was “high polyreactivity”; for “QVQLVESGGGLVQAGGSLRLSCAASGRIFNYYAMGWYRQAPGKERELVAGISGSGTSTYYADSVKGRFTISRDNAKNTVYLQMNSLKPEDTAVYYCAADVFRDDVWLDYWGQGTQVTVSS”, “low polyreactivity”. For the sequence “QVQLVESGGGLVQAGGSLRLSCAASGRIFNYYAMGWYRQAPGKERELVATISRNGGRTYYADSVKGRFTISRDNAKNTVYLQMNSLKPEDTAVYYCATDGLYRYDYWGQGTQVTVSS”, the “polyreactivity (PSR sort gate)” value is recorded as “high polyreactivity”. Consider “QVQLVESGGGLVQAGGSLRLSCAASGRIFNYYAMGWYRQATGKERELVARIDASGDSTYYADSVKGRFTISRDNAKNTVYLQMNSLKPEDTAVYYCNKDYLYSYLWGWKVYSYDYWGQGTQVTVSS”, for which the “polyreactivity (PSR sort gate)” value was “low polyreactivity”.

Consider “QVQLVESGGGLVQAGGSLRLSCAASGRIFPANAMGWYRQAPWKERELVAAISSTGGSTYYADSVKGRFTISRDNAKNSVYLQMKSLKPEDTAVYYCAKVHYRWPRVTWPNVWWSFEYWGQGTQVSVSS”, for which the “polyreactivity (PSR sort gate)” value was “low polyreactivity”.

As for “QVQLVESGGGLVQAGGSLRLSCAASGRIFPAYAMGWYRQAPGKERELVAAISWTGTSTYYADSVKGRFTISRDNAKNTVYLQMNSLKPEDTAVYYCAARSYRLRSAYNYWGQGTQVTVSS”, the “polyreactivity (PSR sort gate)” value is “high polyreactivity”.
